Usually Kd stands for the concentration at which binding is half-saturated.

The target of test [1] is T1, PVRL4_864 (94-957, 864 bps, r864p) recombinant fragment of Nectin-4 (PVRL4_HUMAN) (human, UniProt Q96NY8 32-319).
T1 construct: His-tagged and purified on Ni-sepharose from a 6M urea lysate; also called his-PVRL4_864
T1 sequence (looked up): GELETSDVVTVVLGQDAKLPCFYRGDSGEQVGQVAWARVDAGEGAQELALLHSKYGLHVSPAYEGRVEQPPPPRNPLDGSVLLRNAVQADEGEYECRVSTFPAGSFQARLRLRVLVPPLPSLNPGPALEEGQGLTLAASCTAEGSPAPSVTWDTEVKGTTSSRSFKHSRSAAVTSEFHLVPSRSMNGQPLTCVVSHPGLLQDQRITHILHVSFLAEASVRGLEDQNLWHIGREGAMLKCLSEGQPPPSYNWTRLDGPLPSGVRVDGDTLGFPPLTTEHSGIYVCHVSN
The test can be described thus: competitive ELISA of purified scFv on r864p. For orientation: In an ELISA, binding on a coated surface is turned into a signal by an enzyme label.

Test [2] has as its target T1, PVRL4_864 (94-957, 864 bps, r864p) …. Put plainly: ELISA titration of purified scFv on PVRL4 864.
Test [3] shares this target. Put plainly: competitive ELISA of purified scFv on r864p; competitive ELISA, purified scFv S21 on r864p.

B1: NECTIN4-scFv-S6 (scFv, V domains shown)
VH: TVTLDESGGGLQTPGGGLSLVCKGSGFTFSSNGMAWVRQAPGKGLEFVAGVNAAGSWTGYGAAVKGRATISRDNGQSTVRLQLNDLRAEDTGTYYCAKTADDWYGADDIDAWGHGTEVIVSS
VL: ALTQPSSVSTNLGETVEITCSGSSGYGYGWYQQKSPGSAPVTVIYSNDKRPSDIPSRFSGSASGSTATLTITGVRAEDEAVYLCGGYDSSASYVGIFGAGTTLTVL
notes: Chicken-derived scFv, tested as purified scFv
As for B1, in test [1], the 50% concentration came to 34.9 µg/mL and the Kd came to 942 nM. For the same molecule, the “concentration of scFv at OD450 nm value of 1” value (“concentration of scFv” below) in test [2] is 0.31 µg/mL.

B2: NECTIN4-scFv-L1 (scFv, V domains shown)
VH: AVTLDESGGGLQAPGGGLSLVCRASGFTFSSHGMFWVRQAPGKGLEFVAGISDAGSWTGYGAAVKGRATISRDSGQSTVRLQLNNLRAEDTGIYYCAKSAGDWYGADDIDAWGHGTEVIVSS
VL: ALTQPSSVSANPGETVKITCSGGSSNYYGWYQQKSPGSAPVTLIYNNNKRPSDIPSRFSASKSGSTHTLTITGVRAEDEAVYFCGGWDKSAGIFGAGTTLTVL
notes: as for B1
B2: in test [1], the 50% concentration came to 34.7 µg/mL and the Kd is 939 nM. Also, in test [2], the “concentration of scFv” value was found to be 0.04 µg/mL.

B3: NECTIN4-scFv-S21 (scFv, V domains shown)
VH: AVTLDESGGGLQTPGGALSLVCKASGFTFSSYAMMWVRQAPGKGLEYIAGIRSDGRYTYYGAAVKGRATISRDNGQSTVRLQLNNLRAEDTGTYYCAKSGVTDTSSSTYSSASNIDAWGHGTEVIVSS
VL: ALTQPSSVSANLGGTVKITCSGGSGSYGWYQQKSPGSAPVTLIYANTNRPSDIPSRFSGSKSGSTSTLTITGVQAEDVAVYYCGSRDSSYVGIFGAGTTLTVL
notes: Chicken-derived scFv from a pComb3X phage library, tested as purified scFv; also called anti-PVRL4 scFv S21; NECTIN4-scFv-521
Regarding B3, the 50% concentration in test [1] worked out at 52.5 µg/mL. For the same molecule, in test [2], the “concentration of scFv” value was 0.02 µg/mL. The Kd in test [3] was 1410 nM.

For the origin of these results see patent publication US20230220078A1 (NAVI BIO THERAPEUTICS, published 2023).
